# Laboratory results: patent US20190062417A1 (SHANGHAI JW INFLINHIX, published 2019)
# T1: TNF receptors on the surface of L929 cells (mouse (L929 cells), UniProt P25118 30-454)
# T1 construct: whole, on cells; the Methods stain with anti-TNFR1; also called cell surface receptors; TNF cell membrane surface receptors
# T1 sequence (looked up): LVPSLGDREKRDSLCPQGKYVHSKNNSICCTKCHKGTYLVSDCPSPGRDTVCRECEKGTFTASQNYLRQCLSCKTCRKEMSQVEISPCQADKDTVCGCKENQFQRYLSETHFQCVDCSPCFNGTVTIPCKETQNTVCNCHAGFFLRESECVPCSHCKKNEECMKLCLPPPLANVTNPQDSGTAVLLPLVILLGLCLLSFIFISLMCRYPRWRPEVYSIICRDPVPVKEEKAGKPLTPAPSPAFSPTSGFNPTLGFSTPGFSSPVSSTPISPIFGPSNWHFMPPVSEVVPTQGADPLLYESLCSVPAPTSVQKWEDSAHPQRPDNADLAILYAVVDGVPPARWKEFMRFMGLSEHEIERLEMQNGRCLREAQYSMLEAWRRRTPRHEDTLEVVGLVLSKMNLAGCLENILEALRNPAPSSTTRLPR
# B1: monoclonal antibody 244-12 (antibody, mouse IgG2b, kappa, V domains shown)
# VH: QIQLVQSGPELKKPGETVKISCKASGYTFTNYGMNWVKQAPGKGLKWMGWINTYTGEPTYADDFKGRFAFSLETSANTAYLQINNLRNEGMATYFCARHYRYAWFPYWGQGTLVTVSA
# VL: DIQMTQSPASLSASVGETVTITCRASGNIHIYLAWYQQKQGKSPQLLVYNAKTLADGVPSRFSGSGSGTQYSLKINSLQPEDFGSYYCQHFWSIPWTFGGGTKLEIKR
# notes: also called antibody of the present invention
# Target: T1, TNF receptors on the surface of L929 …
# Assay: confocal microscopy on L929 cells, 244-12 alone
# Method: The cells were fixed with 4% paraformaldehyde (in PBS) for 10 min, blocked in a phosphate-buffer containing 0.5% BSA and 0.1% cold water fish-gelatin for 15min and subsequently incubated with rabbit anti-TNFR1 antibodies (Abcam) for 1 hour. […] PBS-washed specimens were then mounted in Gelvatol/DABCO (Sigma-Aldrich). DNA was counterstained with DAPI (Sigma-Aldrich). All samples were analyzed by fluorescent microscopy using a Nikon Eclipse 80i at 60×. Images were acquired with MS-Elements AR3.0 software using a Hamamatsu camera.
binder,measurement,value
B1,binding result,no binding
